Test results taken from PMC12503259, “Establishment of an in vivo analytical method for detecting total anti-UFH activity and pharmacokinetic study in PS and R15 in rats” (PLOS One, 2025).

Assays:
[1] = Stability in rat plasma after three freeze-thaw cycles; type: in vitro ADME; conditions: for RE%: plasma sample, freeze-thaw three cycles in -20℃, n=6; for Measured concentration after storage, Mean ± SD / RE (%) versus nominal concentration: rat plasma, three freeze (−80°C)-thaw (25°C) cycles; for Measured concentration after storage, Mean ± SD: n = 6
Description: (§1) Processing of Plasma Samples: 100 μL of the unknown plasma sample was added to 500 μL of 75% methanol (methanol: water = 75:25, v/v) and vortex-mixed for 5 seconds. The mixture was then centrifuged at 12,000 r/min for 10 minutes at 25°C. The supernatant (500 μL) was collected and dried under nitrogen at 60°C. Subsequently, UFH (0.14 U·mL^-1 for PS and 0.15 U·mL^-1 for R15; 120 μL) was added, and the mixture was vigorously shaken at room temperature for 10 minutes. The residual UFH content was measured using the Heparin Anti-FXa assay kit.
(§2) The detailed procedure is as follows: Accurately pipette 40 μL of the sample into a 96-well plate. Place the plate in a microplate shaker. Using a multichannel pipette, add 40 μL of reagent R1 and mix by shaking. Incubate at 37 °C for exactly 3 minutes (start timing upon addition of R1; at 50 seconds, begin shaking with the microplate shaker for 1 minute, then place the plate in the incubator). Remove the 96-well plate from the incubator and place it on the open microplate shaker. Using a multichannel pipette, add 40 μL of reagent R2 to each well and incubate at 37 °C for 6 minutes (after adding R2, at 3 minutes and 50 seconds, open the microplate shaker and shake for 4 minutes, then return the plate to the incubator). Remove the 96-well plate from the incubator and place it on the open microplate shaker. Quickly add 40 μL of reagent R3 using a multichannel pipette and shake until 9 minutes and 10 seconds. At 9 minutes and 30 seconds, add 80 μL of 20% acetic acid to each well to terminate the reaction. Measure the absorbance at 405 nm using a microplate reader (Multiskan FC, Thermo Fisher US).
Two concentration levels (low and high QC) were evaluated for validation of storage stability and freeze/thaw stability. Two concentration levels of PS and R15 (low and high QC) in blank rat plasma were prepared (n = 6), respectively. Samples in rats’ plasma were determined after storage at room temperature (25°C ± 1°C) for 30 min. […] Stock solution of PS and R15 were stored at 4°C for a week. All the samples mentioned above were processed by calibration curves with adequate QC samples diluted from newly prepared stock solution of PS and R15, followed by procedure of sample determination (see “Sample Preparation”), respectively.

[2] = Pharmacokinetic study in Wistar rats, total anti-heparin activity in plasma (fixed UFH added, residual UFH by anti-FXa kit); type: in vivo
Description: as §1, §2
Eight Wistar rats (approximately 250 g; equally divided by sex and acclimatized for 1 week in the animal facility) were used for profiling pharmacokinetics of PS. Each rat was cannulated in carotid artery to collect blood the day before the experiment. PS was injected through the tail vein and blood samples were collected at 0 min, 1 min, 3 min, 5 min, 7 min, 9 min, 11 min, 15 min, 20 min, 30 min, 60 min and 120 min in a tube containing 4% sodium citrate. Plasma was achieved by centrifugation at 8000 r/min for 10 min, and stored in the refrigerator at −80°C. […]
During the analysis of actual samples, a standard curve and a series of calibration standards were established for each analytical batch to determine the concentration of PS and R15 in plasma. The concentrations were plotted on the X-axis, and the data were fitted using Equation (3).
Weighted least squares regression was used for the calculations. The Optical Density (OD) values of the unknown biological samples were substituted into the equation to determine the concentration of PS and R15, respectively.
Pharmacokinetic parameters of PS were calculated by WinNonlin 6.4, and all data were processed by Microsoft Excel 2013 and GraphPad Prism 8.3.

[3] = PS 300 U/kg iv, rat 1# (male), single animal
[4] = PS 300 U/kg iv, rat 2# (male), single animal
[5] = PS 300 U/kg iv, rat 3# (male), single animal, not included in mean
[6] = PS 300 U/kg iv, rat 6# (male), single animal
[7] = PS 300 U/kg iv, rat 11# (female), single animal
[8] = PS 300 U/kg iv, rat 12# (female), single animal
[9] = PS 300 U/kg iv, rat 13# (female), single animal
[10] = PS 300 U/kg iv, rat 14# (female), single animal, not included in mean
[11] = PS 300 U·kg^-1 single iv tail vein, Wistar rats, Total (male and female), mean ± SD, n = 6, rats 3# and 14# excluded
[12] = PS 300 U·kg^-1 single iv tail vein, Wistar rats, female, mean ± SD, rat 14# excluded
[13] = PS 300 U·kg^-1 single iv tail vein, Wistar rats, male, mean ± SD, rat 3# excluded

## Protamine sulfate [PS]
[1]; nominal 0.70 μg/mL
  RE%: 10.71%
[1]; nominal 1.50 μg/mL
  RE%: 5.78%
[1]; nominal 0.7 μg·mL^-1, anti-FXa read-out at 405 nm
  Measured concentration after storage, Mean ± SD: 0.78 ± 0.02 µg/mL
[1]; nominal 0.7 μg·mL^-1, n = 6
  RE (%) versus nominal concentration: 10.71%
[1]; nominal 1.5 μg·mL^-1, anti-FXa read-out at 405 nm
  Measured concentration after storage, Mean ± SD: 1.59 ± 0.04 µg/mL
[1]; nominal 1.5 μg·mL^-1, n = 6
  RE (%) versus nominal concentration: 5.78%
[2]; PS 300 U/kg iv, 1 min, Mean±SD
  plasma concentration: 12190 ± 1890 ng/mL
[2]; PS 300 U/kg iv, 3 min, Mean±SD
  plasma concentration: 3410 ± 1620 ng/mL
[2]; PS 300 U/kg iv, 5 min, Mean±SD
  plasma concentration: 1760 ± 440 ng/mL
[2]; PS 300 U/kg iv, 7 min, Mean±SD
  plasma concentration: 910 ± 290 ng/mL
[2]; PS 300 U/kg iv, 9 min, Mean±SD
  plasma concentration: 820 ± 260 ng/mL
[2]; PS 300 U/kg iv, 11 min, Mean±SD
  plasma concentration: 670 ± 210 ng/mL
[2]; PS 300 U/kg iv, 15 min, Mean±SD
  plasma concentration: 550 ± 90 ng/mL
[2]; PS 300 U/kg iv, 20 min, Mean±SD column (one rat)
  plasma concentration: 430 ng/mL
[2]; PS 300 U/kg iv, 20 min, rat 6#
  plasma concentration: 430 ng/mL
[2]; [3]
  AUC: 35.86 min･µg･mL^-1
  CL: 53.74 mL･min^-1･kg^-1
  Cmax: 12.10 µg･mL^-1
  MRT: 2.51 min
  T1/2: 1.72 min
  Vd: 134 mL･kg^-1
[2]; [4]
  AUC: 42.97 min･µg･mL^-1
  CL: 41.70 mL･min^-1･kg^-1
  Cmax: 15.14 µg･mL^-1
  MRT: 3.20 min
  T1/2: 7.06 min
  Vd: 425 mL･kg^-1
[2]; [5]
  AUC: 17.83 min･µg･mL^-1
  Cmax: 11.17 µg･mL^-1
  MRT: 1.12 min
[2]; [6]
  AUC: 45.62 min･µg･mL^-1
  CL: 39.21 mL･min^-1･kg^-1
  Cmax: 14.12 µg･mL^-1
  MRT: 4.40 min
  T1/2: 8.65 min
  Vd: 489 mL･kg^-1
[2]; [7]
  AUC: 29.16 min･µg･mL^-1
  CL: 66.07 mL･min^-1･kg^-1
  Cmax: 12.55 µg･mL^-1
  MRT: 2.12 min
  T1/2: 1.64 min
  Vd: 156 mL･kg^-1
[2]; [8]
  AUC: 33.06 min･µg･mL^-1
  CL: 55.19 mL･min^-1･kg^-1
  Cmax: 12.70 µg･mL^-1
  MRT: 2.49 min
  T1/2: 2.18 min
  Vd: 173 mL･kg^-1
[2]; [9]
  AUC: 28.68 min･µg･mL^-1
  CL: 66.01 mL･min^-1･kg^-1
  Cmax: 9.40 µg･mL^-1
  MRT: 2.97 min
  T1/2: 2.41 min
  Vd: 229 mL･kg^-1
[2]; [10]
  AUC: 18.80 min･µg･mL^-1
  CL: 97.21 mL･min^-1･kg^-1
  Cmax: 10.34 µg･mL^-1
  MRT: 1.46 min
  T1/2: 1.20 min
  Vd: 168 mL･kg^-1
[2]; PS 300 U·kg^-1 single iv tail vein, Wistar rats, Total (male and female), at 1 min, mean ± SD, n = 6, rats 3# and 14# excluded
  Cmax: 12.67 ± 1.96 µg/mL
[2]; [11]
  AUC: 35.89 ± 7.07 µg·min/mL
  CL: 53.65 ± 11.49 mL/min/kg
  MRT: 2.95 ± 0.81 min
  T1/2: 3.94 ± 3.08 min
  Vd: 268 ± 151 mL/kg
[2]; [12]
  AUC: 30.30 ± 2.40 µg·min/mL
  CL: 62.42 ± 6.26 mL/min/kg
  Cmax: 11.55 ± 1.86 µg/mL
  MRT: 2.53 ± 0.43 min
  T1/2: 2.08 ± 0.40 min
  Vd: 186 ± 38 mL/kg
[2]; [13]
  AUC: 41.48 ± 5.05 µg·min/mL
  CL: 44.88 ± 7.77 mL/min/kg
  Cmax: 13.79 ± 1.55 µg/mL
  MRT: 3.37 ± 0.96 min
  T1/2: 5.81 ± 3.63 min
  Vd: 349 ± 189 mL/kg
